Data reported in patent US20240425575A1.
Numbering of substitutions follows the chain as printed. Values belong to the binder of their own block, whether it stands above or below them.

Molecular target: BSA (UniProt P02769)
Test: ELISA, BSA coated (control), E. coli supernatant, anti-VHH-HRP

Sequence of BSA (P02769 25-607 limits assumed): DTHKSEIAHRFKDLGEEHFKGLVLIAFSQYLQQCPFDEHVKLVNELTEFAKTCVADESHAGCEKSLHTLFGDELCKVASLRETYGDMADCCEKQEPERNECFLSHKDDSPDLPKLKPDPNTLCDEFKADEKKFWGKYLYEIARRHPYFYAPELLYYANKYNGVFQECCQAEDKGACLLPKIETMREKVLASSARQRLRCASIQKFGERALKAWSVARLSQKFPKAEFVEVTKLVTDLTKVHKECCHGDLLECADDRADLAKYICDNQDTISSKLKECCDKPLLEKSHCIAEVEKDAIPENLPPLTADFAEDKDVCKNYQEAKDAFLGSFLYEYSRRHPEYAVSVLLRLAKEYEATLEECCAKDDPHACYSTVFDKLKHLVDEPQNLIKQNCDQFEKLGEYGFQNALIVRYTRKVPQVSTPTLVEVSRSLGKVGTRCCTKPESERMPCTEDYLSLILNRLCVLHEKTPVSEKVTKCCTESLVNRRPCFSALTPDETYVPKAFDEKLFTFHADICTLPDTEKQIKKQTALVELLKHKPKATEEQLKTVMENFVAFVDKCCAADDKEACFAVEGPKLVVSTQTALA

OD Value Obtained after Binding to BSA: 0.07 OD 450 nm
B1: B2-E2 (VHH)
VHH: EVQLVESGGGLVQPGESLRLSCVASGFPSGFTFSDYQMYWYRQAPGKERELVAIISNDGLRKTYADSVKGRFTISRDNAKNTMFLQMNSLKPEDTAVYVCNVRRANRDDWGQGTQVTVSS

OD Value Obtained after Binding to BSA: 0.067 OD 450 nm
B2: B1-G3 (VHH)
VHH: EVQVVESGGGLVQPGGSLRLSCVASMPSGISFSNRGMAWYRQAPGKQRELVAAIDSAGSTRYQDSVKGRFTISRDNAKNTVFLQMNSLKPEDTAVYYCNQPAFKAWGQGTQVTVSS

OD Value Obtained after Binding to BSA: 0.065 OD 450 nm
B3: B1-G8 (VHH)
VHH: QVQLVESGGGLVQTGDSLRLSCVAPGISFSNRGMAWYRQAPGKQRELVAAIDSAGSQRYAGSVKDRFTISRDNAKNTVFLQMNSLKPEDTAVYYCNQPRFNLWGQGTQVTVSS

OD Value Obtained after Binding to BSA: 0.063 OD 450 nm
B4: B2-F10 (VHH)
VHH: QVQLVESGGGLVQAGGSLRLSCGASGSAVSITLMAWYRQAPGKQRELVAGISNIGDTNYVDSVKDRFTISRINAKNAMYLQMNSLKPEDTAVYYCFAQDWGGHHYWGQGTQVTVSS

OD Value Obtained after Binding to BSA: 0.059 OD 450 nm
B5: B4-D3 (VHH)
VHH: QLQLVESGGGLVQPGGSLRLSCVASGASGISFSNRGMAWYRQAPGKQRELVAAIDSAGSPAYAGSVKGRFTISRDNAKNTVFLQMNSLKPEDTAVYYCNQPRFNLWGLGTQVTVSS

OD Value Obtained after Binding to BSA: 0.071 OD 450 nm
B6: B3-C11 (VHH)
VHH: EVQLVESGGGLVQAGGSLRLSCFVSGSTFSASLMGWYRQAPGKERELVAGISNIGNTVYADSAKGRFTISRDGAKNTVHLQMNALKPEDTAVYYCYATVPRAAWGQGTQVTVSS

OD Value Obtained after Binding to BSA: 0.049 OD 450 nm
B7: B2-A6 (VHH)
VHH: B6 VHH with E1Q, V2L

OD Value Obtained after Binding to BSA: 0.071 OD 450 nm
B8: B4-C11 (VHH)
VHH: QVQLVESGGGLVQAGGSLRLSCAASGSTFSNVVAGWYRQAPGKQRELVAGISNIGDTRYADSVKGRFTISRDNAKKAVYLQMNSLKPEDTAVYYCYAKYWARDYWGQGTQVTVSS

OD Value Obtained after Binding to BSA: 0.058 OD 450 nm
B9: B1-H9 (VHH)
VHH: B8 VHH with Q1E, G10D, N31S, V32T, V33I, A77T

OD Value Obtained after Binding to BSA: 0.056 OD 450 nm
B10: B3-H7 (VHH)
VHH: B8 VHH with Q1E, L4V, F29A, S30I, V32S, A77T, P87S
